According to patent US20220195008A1 (US Dept. of Health and Human Services, published 2022):

What was measured:
[1] = molecular target: MAGE-A3 168-176 peptide (…) in the context of HLA-A*01 (human); test: cell-based or functional assay
[2] = molecular target: MAGE-A12:170-178 in the context of HLA-Cw7 (subtype not stated at that place) (human); test: cell-based or functional assay

Row | minimum peptide concentration for recognition, relative to TCR A10 [1] | minimum peptide concentration for recognition, relative to TCR 502 [2] | Binder
1 | 10 fold (higher than for TCR A10) |  | anti-MAGE-A3 TCR 13-18 (TCR, V domains shown) V domain 1: QKEVEQDPGPLSVPEGAIVSLNCTYSNSAFQYFMWYRQYSRKGPELLMYTYSSGNKEDGRFTAQVDKSSKYISLFIRDSQPSDSATYLCAMRGAQKLVFGQGTRLTINP V domain 2: DAMVIQNPRYQVTQFGKPVTLSCSQTLNHNVMYWYQQKSSQAPKLLFHYYDKDFNNEADTPDNFQSRRPNTSFCFLDIRSPGLGDAAMYLCATSWDRGYEQYFGPGTRLTVTE
2 |  | 100 fold (higher than for TCR 502) | anti-MAGE-A12 TCR FM8 (TCR, V domains shown) V domain 1: QTVTQSQPEMSVQEAETVTLSCTYDTSESDYYLFWYKQPPSRQMILVIRQEAYKQQNATENRFSVNFQKAAKSFSLKISDSQLGDAAMYFCAYRSAQGGSEKLVFGKGTKLTVNP V domain 2: ETGVTQTPRHLVMGMTNKKSLKCEQHLGHNAMYWYKQSAKKPLELMFVYSLEERVENNSVPSRFSPECPNSSHLFLHLHTLQPEDSALYLCASSQTTYYNEQFFGPGTRLTVLE
